Reference: patent US20160200782A1 (MOERAE MATRIX, published 2016)

T1: PrKX(h) (human, UniProt P51817 1-358)
T1 sequence (looked up): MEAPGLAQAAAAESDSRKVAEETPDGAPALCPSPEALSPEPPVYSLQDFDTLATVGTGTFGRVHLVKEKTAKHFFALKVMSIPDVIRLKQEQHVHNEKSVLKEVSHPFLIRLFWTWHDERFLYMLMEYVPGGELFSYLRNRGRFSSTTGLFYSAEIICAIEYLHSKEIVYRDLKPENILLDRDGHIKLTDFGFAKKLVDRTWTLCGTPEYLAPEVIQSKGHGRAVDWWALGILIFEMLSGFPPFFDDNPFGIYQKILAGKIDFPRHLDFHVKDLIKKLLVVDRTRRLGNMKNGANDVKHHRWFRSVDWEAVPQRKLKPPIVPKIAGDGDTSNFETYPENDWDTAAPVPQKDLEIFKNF

T2: Txk(h) (human, UniProt P42681 1-527, limits assumed)
T2 sequence (looked up): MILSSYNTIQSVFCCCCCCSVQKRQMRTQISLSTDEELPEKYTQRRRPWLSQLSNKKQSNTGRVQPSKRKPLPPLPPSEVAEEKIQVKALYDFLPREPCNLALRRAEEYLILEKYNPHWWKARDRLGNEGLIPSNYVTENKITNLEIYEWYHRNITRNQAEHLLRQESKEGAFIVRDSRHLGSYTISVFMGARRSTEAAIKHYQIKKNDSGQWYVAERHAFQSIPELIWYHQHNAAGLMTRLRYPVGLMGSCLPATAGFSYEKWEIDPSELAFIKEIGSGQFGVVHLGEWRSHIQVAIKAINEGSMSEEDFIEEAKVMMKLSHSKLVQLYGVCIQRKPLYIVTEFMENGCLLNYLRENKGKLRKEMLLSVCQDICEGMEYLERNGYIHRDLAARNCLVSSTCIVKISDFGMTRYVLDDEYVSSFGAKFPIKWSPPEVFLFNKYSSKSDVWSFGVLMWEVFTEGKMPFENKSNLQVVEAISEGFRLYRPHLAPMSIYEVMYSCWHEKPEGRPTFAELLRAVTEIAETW

T3: PhKγ2(h) (human, UniProt P15735 1-406, limits assumed)
T3 sequence (looked up): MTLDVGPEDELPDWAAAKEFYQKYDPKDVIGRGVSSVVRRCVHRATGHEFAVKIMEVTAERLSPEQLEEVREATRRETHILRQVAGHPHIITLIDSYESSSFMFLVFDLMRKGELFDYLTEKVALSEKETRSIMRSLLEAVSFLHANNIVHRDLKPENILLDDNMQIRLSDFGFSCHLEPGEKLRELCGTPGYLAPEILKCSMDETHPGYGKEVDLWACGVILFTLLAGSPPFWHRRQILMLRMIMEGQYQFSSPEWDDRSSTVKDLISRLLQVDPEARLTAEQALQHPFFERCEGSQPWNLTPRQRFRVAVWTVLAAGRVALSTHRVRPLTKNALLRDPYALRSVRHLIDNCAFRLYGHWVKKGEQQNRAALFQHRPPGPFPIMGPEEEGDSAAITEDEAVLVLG

T4: EphB1(h) (human, UniProt P54762 564-984, limits assumed)
T4 sequence (looked up): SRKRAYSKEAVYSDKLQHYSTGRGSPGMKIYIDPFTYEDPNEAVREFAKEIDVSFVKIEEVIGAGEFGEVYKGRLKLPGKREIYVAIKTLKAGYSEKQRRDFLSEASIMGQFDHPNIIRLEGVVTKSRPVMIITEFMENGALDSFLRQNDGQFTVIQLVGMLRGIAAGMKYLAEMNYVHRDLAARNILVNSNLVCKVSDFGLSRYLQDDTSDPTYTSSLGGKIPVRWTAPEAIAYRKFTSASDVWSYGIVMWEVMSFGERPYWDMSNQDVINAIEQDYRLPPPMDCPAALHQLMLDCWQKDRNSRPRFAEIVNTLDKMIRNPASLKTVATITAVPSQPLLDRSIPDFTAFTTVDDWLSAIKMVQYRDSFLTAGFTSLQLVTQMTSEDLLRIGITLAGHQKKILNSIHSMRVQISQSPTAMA

T5: SGK2(h) (human, UniProt Q9HBY8 1-367, limits assumed)
T5 sequence (looked up): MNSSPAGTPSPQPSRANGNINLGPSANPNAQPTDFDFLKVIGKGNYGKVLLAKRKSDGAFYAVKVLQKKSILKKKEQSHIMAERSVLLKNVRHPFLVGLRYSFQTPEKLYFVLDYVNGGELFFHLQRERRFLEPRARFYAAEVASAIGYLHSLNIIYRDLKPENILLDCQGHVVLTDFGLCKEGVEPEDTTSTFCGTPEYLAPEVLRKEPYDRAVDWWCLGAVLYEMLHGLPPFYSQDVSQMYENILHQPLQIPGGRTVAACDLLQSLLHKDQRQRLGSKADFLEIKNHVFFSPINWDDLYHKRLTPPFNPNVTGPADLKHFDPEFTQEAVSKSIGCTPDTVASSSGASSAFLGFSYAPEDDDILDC

T6: Fms(h) (human, UniProt P07333 538-972, limits assumed)
T6 sequence (looked up): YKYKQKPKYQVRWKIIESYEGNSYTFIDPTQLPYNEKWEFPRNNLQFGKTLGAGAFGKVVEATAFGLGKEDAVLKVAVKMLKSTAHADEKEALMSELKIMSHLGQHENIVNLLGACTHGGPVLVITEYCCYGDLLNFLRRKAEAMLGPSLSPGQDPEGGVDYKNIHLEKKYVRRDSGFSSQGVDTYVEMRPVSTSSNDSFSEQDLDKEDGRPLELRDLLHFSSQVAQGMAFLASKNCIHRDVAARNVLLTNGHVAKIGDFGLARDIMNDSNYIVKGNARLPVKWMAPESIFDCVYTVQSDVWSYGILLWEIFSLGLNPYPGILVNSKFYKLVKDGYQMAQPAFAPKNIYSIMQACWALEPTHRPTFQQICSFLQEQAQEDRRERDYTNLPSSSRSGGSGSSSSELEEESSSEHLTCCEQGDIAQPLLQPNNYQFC


What was measured:
Experiment in all cases: cell-based or functional assay
[1] = biological target: T1, PrKX(h)
[2] = biological target: T2, Txk(h)
[3] = biological target: T3, PhKγ2(h)
[4] = biological target: T4, EphB1(h)
[5] = biological target: cKit(h) (human, UniProt P10721 544-976, limits assumed)
Chain of cKit(h) (P10721 544-976 limits assumed): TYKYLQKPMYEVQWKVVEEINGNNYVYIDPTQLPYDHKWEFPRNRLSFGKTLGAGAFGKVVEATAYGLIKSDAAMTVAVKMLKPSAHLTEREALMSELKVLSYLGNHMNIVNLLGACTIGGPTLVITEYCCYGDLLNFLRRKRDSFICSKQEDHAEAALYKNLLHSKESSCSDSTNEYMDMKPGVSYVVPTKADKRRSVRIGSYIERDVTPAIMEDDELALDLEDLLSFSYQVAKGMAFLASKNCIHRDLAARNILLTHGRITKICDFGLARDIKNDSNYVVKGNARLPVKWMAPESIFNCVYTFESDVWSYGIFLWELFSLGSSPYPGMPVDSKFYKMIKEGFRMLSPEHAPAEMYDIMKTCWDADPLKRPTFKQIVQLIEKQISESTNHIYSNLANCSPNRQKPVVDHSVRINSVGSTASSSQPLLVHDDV

[6] = biological target: T5, SGK2(h)
[7] = biological target: T6, Fms(h)
[8] = biological target: Met(M1268T)(h) (human, UniProt P08581-2 974-1408, limits assumed)
[9] = biological target: JNK1α1(h) (human, UniProt P45983-2 1-384)
Chain of JNK1α1(h) (P45983 other isoform, or with tags, fused parts or gaps limits assumed): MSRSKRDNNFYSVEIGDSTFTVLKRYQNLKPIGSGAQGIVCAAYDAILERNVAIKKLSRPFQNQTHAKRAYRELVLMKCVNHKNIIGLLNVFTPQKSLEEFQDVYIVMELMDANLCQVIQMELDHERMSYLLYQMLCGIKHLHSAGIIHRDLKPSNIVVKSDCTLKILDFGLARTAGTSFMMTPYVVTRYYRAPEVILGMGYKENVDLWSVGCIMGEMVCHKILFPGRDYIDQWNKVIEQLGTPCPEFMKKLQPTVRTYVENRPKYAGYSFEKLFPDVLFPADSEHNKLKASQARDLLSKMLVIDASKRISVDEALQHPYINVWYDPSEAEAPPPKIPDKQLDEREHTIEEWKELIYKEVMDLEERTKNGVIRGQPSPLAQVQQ

[10] = biological target: RIPK2(h) (human, UniProt O43353 1-299, limits assumed)
Chain of RIPK2(h) (O43353 1-299 limits assumed): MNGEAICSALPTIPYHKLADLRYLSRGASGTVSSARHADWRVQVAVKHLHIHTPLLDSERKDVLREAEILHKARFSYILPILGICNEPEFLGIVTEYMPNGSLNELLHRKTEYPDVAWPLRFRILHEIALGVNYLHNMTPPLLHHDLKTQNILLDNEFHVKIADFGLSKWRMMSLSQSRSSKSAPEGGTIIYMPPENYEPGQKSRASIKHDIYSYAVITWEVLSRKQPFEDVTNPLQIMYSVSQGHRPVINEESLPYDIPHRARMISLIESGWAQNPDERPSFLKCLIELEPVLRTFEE
Also: test concentration or dose not given here.

% activity [1] [%] | % activity [2] [%] | % activity [3] [%] | % activity [4] [%] | % activity [5] [%] | % activity [6] [%] | % activity [7] [%] | % activity [8] [%] | % activity [9] [%] | % activity [10] [%] | Binder
76 | 37 | 38 | 58 | 43 | 98 | 37 | 265 | 98 | 98 | KAFAKLAARLYRKALARQLGVAA [MMI-0400]
61 | 48 | 46 | 44 | 53 | 56 | 45 | 255 | 97 | 97 | FAKLAARLYRKALARQLGVAA [MMI-0300]
